One substance from article PMC4889239 can be followed below.

The target of the assay is ataxia-telangiectasia mutated (ATM) kinase, full-length human (human) (UniProt Q13315). Put plainly: negative-stain single-particle electron microscopy. Conditions: remark: other sources report otherwise.

Substance “ataxia-telangiectasia mutated (ATM) kinase, full-length human, Q13315 1-3056” yielded a percent of the particles that are dimers (% of the particles) of 60.
